Data: patent US20230365699A1 (published 2023)

T1: human BCMA (B-cell maturation antigen) expressed on cells (human, UniProt Q02223 1-184)
T1 construct: whole, on cells; also called hBCMA; hBCMA/HEK293 cell line
T1 sequence (looked up): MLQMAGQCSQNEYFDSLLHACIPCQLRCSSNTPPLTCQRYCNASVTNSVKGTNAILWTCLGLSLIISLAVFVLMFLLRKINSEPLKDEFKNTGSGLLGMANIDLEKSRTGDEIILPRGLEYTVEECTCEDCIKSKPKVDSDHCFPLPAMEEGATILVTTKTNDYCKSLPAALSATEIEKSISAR


What was measured:
[1] = target: T1, human BCMA (B-cell maturation antigen) …; assay: flow cytometry on hBCMA-expressing HEK293 cells
[2] = target: T1, human BCMA (B-cell maturation antigen) …; assay: flow cytometry, hBCMA-overexpressing HEK293 compared with OPM2 and RPMI-8226 cells
[3] = target: human BCMA (B-cell maturation antigen) expressed on cells (human) (UniProt Q02223); assay: flow cytometry, hBCMA-expressing HEK293 cells against parental HEK293 cells

Row | Binder | fold selective binding (hBCMA-expressing HEK293 over parental HEK293) [3] [fold] | further results
1 | BCMA-13 scFv (scFv) scFv: QMQLVQYGGGVVQPGRSLRLSCAASGFTFSSYAMHWVRQAPGKGLEWVAVISYDGSNKYYADSVKGRFTISRDNSKNTLYLQMNSLKAEDTAVYYCATLPGRDGYPGAFDYRGQGTLVTVSSGGGGSGGGGSGGGGSQAVLTQPPSASGTPGQRVTISCSGSGSNIGSNDVSWYQQIPGTAPKLLIYWNDQRPSGVPDRFSASKSGTSASLAISGLRSEDEADYYCAAWDDSLGGSWVFGGGTKVTVL |  | binding result [1]: no binding
2 | BCMA-30 scFv (scFv, V domains shown) VH: QVQLVQSGGGLVQPGRSLRLSCAASGFTFGDYAMHWVRQAPGKGLEWVSGISWNSGSIGYADSVKGRFTISRDNAKNSLYLQMNSLRAEDTAVYYCARDLDPDDAFDIWGQGTMVTVSS |  | binding result [2]: binds
3 | BCMA-18 scFv (scFv) scFv: EVQLLESGGGLVQPGGSLRLSCAASGFTFSSYWMSWHRQAPGKGPEWVAHINQDGSEKYYVDSVKGRFTISRDNAESSLYLQMNSLRAEDTAVYYCARWLAVTNWGQGTLVTVSSGGGGSGGGGSGGGGSQSVLTQPPSASGTPGQRVTISCSGSGSNIGSNDVSWYQQIPGTAPKLLIYWNDQRPSGVPDRFSGSKSGTSASLAISGLRSEDEADYYCAAWDDSLNGWVFGGGTKLTVL | 2.2 | 
4 | BCMA-22 scFv (scFv) scFv: EVQLVESGGGLVKPGGSLRLSCAASGFTFSDYYMSWIRQAPGKGLEWVSYISSSGSTIYYADSVKGRFTISRDNAKNSLYLQMNSLRAEDTAVYYCAKVDGDYTEDYWGQGTLVTVSSGGGGSGGGGSGGGGSQSALTQPASVSGSPGQSITISCTGSSSDVGKYNLVSWYQQPPGKAPKLIIYDVNKRPSGVSNRFSGSKSGNTATLTISGLQGDDEADYYCCSYGGSRSYVFGTGTKVTVL | 7.5 | 
5 | BCMA-21 scFv (scFv) scFv: EVQLVESGGGLVKPGGSLKLSCAASGFTFSDYYMSWIRQAPGKGLEWVSYISSSGSTIYYADSVKGRFTISRDNAKNSLYLQMNSLRAEDTAVYYCAKVDGGYTEDYWGQGTLVTVSSGGGGSGGGGSGGGGSQSVLTQPPSASGTPGQRVTISCSGSGSNIGSNDVSWYQQIPGTAPKLLIYWNDQRPSGVPDRFSGSKSGISASLAISGLRSEDEADYYCAAWDDSLNGYVFGTGTKVTVL | 3.4 | 
6 | BCMA-20 scFv (scFv) scFv: EVQLLESGGGLVQPGRSLRLSCAASGFTFDDYAMHWVRQAPGKGLEWVSGISWNSGSIGYADSVKGRFTISRDNAKNSLYLQMNSLRAEDTALYYCAKGGLGITPYYFDYWGQGTLVTVSSGGGGSGGGGSGGGGSQPVLTQPPSASGTPGQRVTISCSGGKTVNWFRQVPGTAPQLLIYSNDQRPSGVPDRFSGSKSGSSASLDISGLQSEDEAYYYCGSWDDSLNAWVFGGETKLTVL | 10.8 | 
